Kd data for three sequences are collected here from article PMC7736792.

The subject of this data set is p44 (in p44/p62 complex);p62 (in p44/p62 complex) (Chaetomium thermophilum;Chaetomium thermophilum). The data set is described as follows: fluorescence anisotropy. The settings on record: 20 mM HEPES pH 7.5, 30 mM KCl, 5 mM MgCl2, 1 mM TCEP, 5 nM DNA, room temperature.
The sequence “GACTACGTACTGTTACGGCTCCATCTCTACCGCAATCAGGCCAGATCTGC [undamaged ssDNA 50 nt]” had a Kd of 840 nM. To “TTTTTTTTTTTTTTTCCCGGCCATGCGAAGCATGGCCGGGTTTTT [open fork hairpin]” belongs 210 nM; to “GACTACGTACTGTTACGGCTCCATCTCTACCGCAATCAGGCCAGATCTGC / GCAGATCTGGCCTGATTGCGGTAGCGATGGAGCCGTAACAGTACGTAGTC [undamaged dsDNA 50 bp]”, 1180 nM.
